Numbering of substitutions follows the chain as printed.
B1: 1C11-based mAb (antibody, from another filing, V domains shown)
VH: QIQLVQSGPELKKPGETVKISCRASGYTFTHYGMNWVKQAPGKGLKWMGWINTYTGEPTYADDFKGRFAFSLETSASTAYLQINNLKNEDTATYFCARDYYGSSPYWGQGTTLTVSS
VL: DVLMTQTPLSLPVSLGDQASISCRSSQSIVHSNGNTYLEWYLQKPGQSPKLLIYKVSNRFSGVPDRFSGSGSGTDFTLKISRVEAEDLGVYYCFQGSHVPNTFGGGTKLEIKR
B2: mAb C H1.19_L1.1 (in the context of PD-1-targeted IL-15/Rα-Fc fusion) (Fc fusion, part only; not given: IL-15/Rα-Fc chain, constant regions, not shown: another chain or arm of the molecule; a dimerising Fc or GST; small tags and cut ends)
VH: EVQLVESGGGLVQPGGSLRLSCAASGFTFSSLGMHWVRQAPGKGLEWVSYISSGSSIIYYADSVKGRFTISRDNAKNSLYLQMNSLRAEDTAVYYCARGGRLVWSPDYWGQGTLVTVSS
VL: DIVMTQSPDSLAVSLGERATINCKSSQSLLHSGNQKNYLTWYQQKPGQPPKLLIYWASTRESGVPDRFTGSGSGTDFTLTISSLQAEDVAVYYCQNDYSYPFTFGSGTKLEIK
B3: mAb C H1_L1.140 (in the context of PD-1-targeted IL-15/Rα-Fc fusion) (Fc fusion, part only; not given: IL-15/Rα-Fc chain, constant regions, not shown: another chain or arm of the molecule; a dimerising Fc or GST; small tags and cut ends)
VH: B2 VH with L32F
VL: B2 VL with K36Y, S99T
B4: mAb C H1.132_L1.140 (in the context of PD-1-targeted IL-15/Rα-Fc fusion) (Fc fusion, part only; not given: IL-15/Rα-Fc chain, constant regions, not shown: another chain or arm of the molecule; a dimerising Fc or GST)
VH: B2 VH with L32F, R101W
VL: B2 VL with K36Y, S99T
B5: mAb C H1.175_L1.140 (in the context of PD-1-targeted IL-15/Rα-Fc fusion) (Fc fusion, part only; not given: IL-15/Rα-Fc chain, constant regions, not shown: another chain or arm of the molecule; a dimerising Fc or GST)
VH: B2 VH with S53G, R101W
VL: B2 VL with K36Y, S99T

What was measured:
human PD-1-His (human) [1] = molecular target: human PD-1-His (human) (UniProt Q15116); test: Octet tandem epitope binning: PD-1-His on HIS1K biosensor, first dip PDL1-Fc (row), second dip 1C11-based mAb; normalized to HBS-EP first dip
Sequence of human PD-1-His (human) (Q15116 25-167 limits assumed): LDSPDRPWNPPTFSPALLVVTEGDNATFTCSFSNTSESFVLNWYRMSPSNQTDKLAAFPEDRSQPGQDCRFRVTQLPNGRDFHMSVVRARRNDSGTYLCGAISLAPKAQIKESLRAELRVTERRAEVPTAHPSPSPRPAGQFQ

human PD-1-His (human) [2] = molecular target: human PD-1-His (human) (UniProt Q15116); test: Octet tandem epitope binning: PD-1-His on HIS1K biosensor, first dip chmAb A (row), second dip 1C11-based mAb; normalized to HBS-EP first dip
human PD-1-His (human) [3] = molecular target: human PD-1-His (human) (UniProt Q15116); test: Octet tandem epitope binning: PD-1-His on HIS1K biosensor, first dip chmAb B (row), second dip 1C11-based mAb; normalized to HBS-EP first dip
human PD-1-His (human) [4] = molecular target: human PD-1-His (human) (UniProt Q15116); test: Octet tandem epitope binning: PD-1-His on HIS1K biosensor, first dip XENP16432 (row), second dip 1C11-based mAb; normalized to HBS-EP first dip
human PD-1-His (human) [5] = molecular target: human PD-1-His (human) (UniProt Q15116); test: Octet tandem epitope binning: PD-1-His on HIS1K biosensor, first dip XENP21461 (row), second dip 1C11-based mAb; normalized to HBS-EP first dip
human PD-1-His (human) [6] = molecular target: human PD-1-His (human) (UniProt Q15116); test: Octet tandem epitope binning: PD-1-His on HIS1K biosensor, first dip 1C11-based mAb (row), second dip 1C11-based mAb; normalized to HBS-EP first dip
human PD-1-His (human) [7] = molecular target: human PD-1-His (human) (UniProt Q15116); test: Octet tandem epitope binning: PD-1-His on HIS1K biosensor, first dip HBS-EP buffer (row; the reference of the normalization), second dip 1C11-based mAb
human PD-1-His (human) [8] = molecular target: human PD-1-His (human) (UniProt Q15116); test: Octet
human PD-1-His (human) [9] = molecular target: human PD-1-His (human) (UniProt Q15116); test: Octet; in the context of PD-1-targeted IL-15/Rα-Fc fusion; reference mAb C H1L1

Binder	normalized BLI-response (human PD-1-His (human) [1])	normalized BLI-response (human PD-1-His (human) [2])	normalized BLI-response (human PD-1-His (human) [3])	normalized BLI-response (human PD-1-His (human) [4])	normalized BLI-response (human PD-1-His (human) [5])	normalized BLI-response (human PD-1-His (human) [6])	normalized BLI-response (human PD-1-His (human) [7])	Kd (human PD-1-His (human) [8])	koff (human PD-1-His (human) [8])	kon (human PD-1-His (human) [8])	fold improvement in KD over wild-type (human PD-1-His (human) [9])
B1	0.621	0.966	0.253	0.29	0.405	0.0987	1	–	–	–	–
B2	–	–	–	–	–	–	–	2.29 nM	0.00017 s⁻¹	74400 M⁻¹ s⁻¹	–
B3	–	–	–	–	–	–	–	1.62 nM	0.000122 s⁻¹	74800 M⁻¹ s⁻¹	36 fold
B4	–	–	–	–	–	–	–	0.543 nM	7.88e-05 s⁻¹	145000 M⁻¹ s⁻¹	100 fold
B5	–	–	–	–	–	–	–	0.624 nM	7.88e-05 s⁻¹	126000 M⁻¹ s⁻¹	100 fold

Source: patent publication US20240294593A1
